Earlier results on one sequence are cited in US10464968B2, “Method for producing a composition for treating a tooth lesion” (CREDENTIS AG, priority 2012, dated 2019).

Read-outs that look alike come from different tables or passages of the source. No end group written: not given here.

As to “QQRFEWEFEQQ [Example P11-4, self-assembling peptide of 11 amino acids]”, the “phase state of aqueous solution” value was “isotropic fluid” (above pH 7.5); “nematic gel” (below pH 3); “flocculate” (between about pH 5 and about pH 3); “nematic fluid” (between about pH 7.5 and about pH 5).
